For assay [1], the target named is T1, full-length isoform 2 ECD of human CD96 with a C89S mutation (His-tagged) (human, UniProt P40200 22-519).
T1 construct: also called His-tagged isoform 2 of human CD96 with a C89S mutation; human CD96 extracellular domain isoform 2 C89S
T1 sequence: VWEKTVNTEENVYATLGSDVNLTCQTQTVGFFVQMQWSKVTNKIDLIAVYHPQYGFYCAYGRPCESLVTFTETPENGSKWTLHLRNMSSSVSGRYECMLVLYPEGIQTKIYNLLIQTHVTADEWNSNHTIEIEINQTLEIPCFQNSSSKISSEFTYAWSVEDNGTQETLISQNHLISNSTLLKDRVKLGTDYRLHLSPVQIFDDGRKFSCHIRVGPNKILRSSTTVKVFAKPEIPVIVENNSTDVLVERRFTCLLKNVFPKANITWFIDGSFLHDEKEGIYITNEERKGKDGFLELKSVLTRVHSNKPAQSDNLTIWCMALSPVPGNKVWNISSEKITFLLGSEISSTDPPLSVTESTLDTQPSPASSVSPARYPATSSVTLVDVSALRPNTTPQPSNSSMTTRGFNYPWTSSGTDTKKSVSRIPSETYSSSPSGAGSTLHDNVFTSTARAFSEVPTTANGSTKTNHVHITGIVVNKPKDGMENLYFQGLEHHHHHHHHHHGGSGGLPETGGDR
Nature of the assay: SPR Biacore T200, geomean of experiments #1 and #2. The protocol: (§1) Briefly, surface plasmon resonance experiments were performed using a Biacore T200 instrument, and the association rate (kₐ), dissociation rate (kd), and dissociation constant (KD) were calculated from each experiment using a 1:1 binding model with Biacore T200 Evaluation Software.
Multispecific molecules were captured using a 30-sec injection at a flow rate of 10 μl/min to reach about 350 resonance units (RUs). […] The sensor chip was regenerated between cycles with two 30-sec injections of 10 mM glycine, pH 1.5. Sensorgrams were evaluated and fit to a simple Langmuir 1:1 interaction model using the global data analysis option of BIAevaluation 3.0 software. Data quality was verified by visually inspecting deviations and curve fitting, and by evaluating the parameters of Rₘₐₓ, Chi2, and Tc.

Assay [2] addresses T2, wild type full-length human CD96 isoform 2 expressed on CHO cells (human, UniProt P40200-2 22-569).
T2 construct: whole, on cells; also called human CD96-CHO (isoform 2); human CD96 (iso2) CHO cells
T2 sequence (looked up): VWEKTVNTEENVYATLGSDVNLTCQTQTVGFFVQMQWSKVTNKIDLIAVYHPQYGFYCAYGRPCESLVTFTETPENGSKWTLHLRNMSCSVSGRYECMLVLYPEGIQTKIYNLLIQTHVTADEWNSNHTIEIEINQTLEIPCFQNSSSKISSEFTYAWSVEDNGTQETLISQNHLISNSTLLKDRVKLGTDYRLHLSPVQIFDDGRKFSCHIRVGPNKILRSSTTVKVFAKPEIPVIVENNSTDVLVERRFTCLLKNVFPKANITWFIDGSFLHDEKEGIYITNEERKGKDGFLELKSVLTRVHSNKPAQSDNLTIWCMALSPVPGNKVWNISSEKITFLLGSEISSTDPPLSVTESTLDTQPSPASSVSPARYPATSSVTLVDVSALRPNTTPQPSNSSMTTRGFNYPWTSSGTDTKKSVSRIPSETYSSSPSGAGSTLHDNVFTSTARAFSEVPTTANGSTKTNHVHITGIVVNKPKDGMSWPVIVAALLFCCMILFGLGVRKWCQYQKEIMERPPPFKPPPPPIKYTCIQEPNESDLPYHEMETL
Description: flow cytometry, blocking of CD155-Fc-PE binding to human CD96 (isoform 2) CHO cells, geomean of 3 experiments. The protocol: A 4× concentrated intermediate stock of each multispecific molecule was prepared in a microplate. Antibodies were serially diluted 1-to-3 in FACS buffer. […] Lastly, 25 μL of wild type human CD96-CHO cells (isoform 2), prepared as described above, were added to each well. After a 30-minute incubation on ice, the cells were washed twice with cold FACS Buffer, and the cells were analyzed by flow cytometry (BD LSR Fortessa Flow Cytometer). The data were analyzed using the FlowJo software by sequentially gating on the FSC-A vs. SSC-A and SSC-H vs. SSC-A. Mean fluorescence intensity (MFI) values for PE were calculated, and the data were plotted by GraphPad Prism software and analyzed as described above.
A general note: Flow cytometry measures light scatter and fluorescence of single cells or particles in a stream.

In assay [3] the target is T3, full-length human FcγRIIIa variant F/F expressed on CHO cells (human, UniProt P08637 17-254).
T3 construct: whole, on cells; also called human FcγRIIIa-CHO (variant F/F); human FcγRIIIa (F/F) CHO cells
Nature of the assay: flow cytometry, human FcγRIIIa (F/F) CHO cells, 1 experiment. The protocol:
For the antibody binding assay, a frozen aliquot of human FcγRIIIa-CHO cells (variant V/V or variant F/F) was thawed at 37° C. and then transferred to a tube containing DPBS supplemented with 0.5% Bovine Serum Albumin and 0.05% Sodium Azide (FACS Buffer). Cells were centrifuged at 300 g for five minutes. The supernatant was discarded, and cells resuspended in FACS buffer were seeded in a 96-well U-bottom tissue culture plate at a density of 2×10⁵ cells per well in 50 μL. In a separate microplate, a 2× concentrated intermediate stock of each antibody was prepared. Antibodies were serially diluted 1-to-4 in FACS buffer. A total of 11 working dilutions ranging from 60 μg/mL to 0.000057 μg/mL were prepared. Fifty microlitres of each dilution were then transferred to the microplate containing human FcγRIIIa-CHO (variant V/V or variant F/F) cells. The cells were then incubated for 45 minutes at 4° C. […] After a 30-minute incubation on ice, the cells were washed twice with cold FACS Buffer, and the cells were analyzed by flow cytometry (BD LSR Fortessa Flow Cytometer). The data were analyzed using the FlowJo software by sequentially gating the FSC-A vs. SSC-A, and SSC-H vs. SSC-A. Mean fluorescence intensity (MFI) values for PE were calculated, and the data were plotted by GraphPad Prism software.

Assay [4] has as its target T4, full-length ECD of human TIGIT (His-tagged) (human).
T4 construct: also called His-tagged human TIGIT; human TIGIT extracellular domain
T4 chain: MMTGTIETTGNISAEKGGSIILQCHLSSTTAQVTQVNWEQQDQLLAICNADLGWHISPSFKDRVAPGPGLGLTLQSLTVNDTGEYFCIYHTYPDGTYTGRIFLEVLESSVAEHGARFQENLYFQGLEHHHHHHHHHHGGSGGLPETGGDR
Nature of the assay: SPR Biacore T200, Protein A capture, 1:1 model, experiment #1. How it is done:
as §1
Multispecific molecules were captured using a 30-sec injection at a flow rate of 10 μl/min to reach about 1000 resonance units (RUs). […] The sensor chip was regenerated between cycles with two 30-sec injections of 10 mM glycine, pH 1.5. Sensorgrams were evaluated and fit to a simple Langmuir 1:1 interaction model using the global data analysis option of BIAevaluation 3.0 software. Data quality was verified by visually inspecting deviations and curve fitting, and by evaluating the parameters of Rₘₐₓ, Chi2, and Tc.

T3 sequence (P08637 17-254, change not shown): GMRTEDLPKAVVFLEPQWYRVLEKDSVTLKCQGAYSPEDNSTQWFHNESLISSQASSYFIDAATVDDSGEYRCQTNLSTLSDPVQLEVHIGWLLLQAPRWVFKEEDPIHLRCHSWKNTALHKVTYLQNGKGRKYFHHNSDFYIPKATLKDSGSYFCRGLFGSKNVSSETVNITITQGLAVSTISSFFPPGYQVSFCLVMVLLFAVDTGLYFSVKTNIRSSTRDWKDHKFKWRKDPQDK

B1: anti-TIGIT×CD96 multispecific molecule BA123 (bispecific antibody, human IgG1, kappa, lambda)
heavy 1: QVQLVQSGAEVKKPGASVKVSCKASGYTFTSYGISWVRQAPGQGLEWMGWISAYNANTNYAQKLQGRVTMTTDTSTSTAYMELRSLRSDDTAVYYCARSAGVLGGMDVWGRGTLVTVSSASTKGPSVFPLAPSSKSTSGGTAALGCLVKDYFPEPVTVSWNSGALTSGVHTFPAVLQSSGLYSLSSVVTVPSSSLGTQTYICNVNHKPSNTKVDKRVEPKSCDKTHTCPPCPAPELLGGPDVFLFPPKPKDTLMISRTPEVTCVVVDVSHEDPEVKFNWYVDGVEVHNAKTKPREEQYNSTYRVVSVLTVLHQDWLNGKEYKCKVSNKALPAPIEKTISKAKGQPREPQVYTLPPSREEMTKNQVSLSCAVKGFYPSDIAVEWESNGQPENNYKTTPPVLDSDGSFFLVSKLTVDKSRWQQGNVFSCSVMHEALHNHYTQKSLSLSPG
light 1: not shown
heavy 2: EVQLVQSGAEVKKPGSSVKVSCKASGYTFASYGISWVRQAPGQGLEWMGGITPFFNRVDVAEKFQGRVTITADKSTSTAYIELSSLRSEDTAVYYCARDLRRGGVGDAFDIWGRGTLVTVSSASTKGPSVFPLAPSSKSTSGGTAALGCLVKDYFPEPVTVSWNSGALTSGVHTFPAVLQSSGLYSLSSVVTVPSSSLGTQTYICNVNHKPSNTKVDKRVEPKSCDKTHTCPPCPAPELLGGPDVFLFPPKPKDTLMISRTPEVTCVVVDVSHEDPEVKFNWYVDGVEVHNAKTKPREEQYNSTYRVVSVLTVLHQDWLNGKEYKCKVSNKALPLPEEKTISKAKGQPREPQVYTLPPSREEMTKNQVSLWCLVKGFYPSDIAVEWESNGQPENNYKTTPPVLDSDGSFFLYSKLTVDKSRWQQGNVFSCSVMHEALHNHYTQKSLSLSPG
light 2: QSALTQPRSVSGSPGQSVTISCTGTSPDVGSHAYRSWYQQHPGKAPKLMIYEVSYRPSGVSNRFSGSKSGNTASLTISGLQAEDEADYYCSSYPPSSATVFGAGTKLTVLGQPKAAPSVTLFPPSSEELQANKATLVCLISDFYPGAVTVAWKADSSPVKAGVETTTPSKQSNNKYAASSYLSLTPEQWKSHRSYSCQVTHEGSTVEKTVAPTEC
notes: copies: 1 + 1 + 1 + 1
B1 came in with a dissociation constant Kd in assay [1] of 81.9 nM. Also, the IC50 in assay [2] came to 5.63 µg/mL.

B2: anti-TIGIT monospecific antibody BA148 (antibody, human IgG1, lambda)
heavy: EVQLVQSGAEVKKPGSSVKVSCKASGYTFASYGISWVRQAPGQGLEWMGGITPFFNRVDVAEKFQGRVTITADKSTSTAYIELSSLRSEDTAVYYCARDLRRGGVGDAFDIWGRGTLVTVSSASTKGPSVFPLAPSSKSTSGGTAALGCLVKDYFPEPVTVSWNSGALTSGVHTFPAVLQSSGLYSLSSVVTVPSSSLGTQTYICNVNHKPSNTKVDKRVEPKSCDKTHTCPPCPAPELLGGPDVFLFPPKPKDTLMISRTPEVTCVVVDVSHEDPEVKFNWYVDGVEVHNAKTKPREEQYNSTYRVVSVLTVLHQDWLNGKEYKCKVSNKALPLPEEKTISKAKGQPREPQVYTLPPSREEMTKNQVSLTCLVKGFYPSDIAVEWESNGQPENNYKTTPPVLDSDGSFFLYSKLTVDKSRWQQGNVFSCSVMHEALHNHYTQKSLSLSPGK
light: QSALTQPRSVSGSPGQSVTISCTGTSPDVGSHAYRSWYQQHPGKAPKLMIYEVSYRPSGVSNRFSGSKSGNTASLTISGLQAEDEADYYCSSYPPSSATVFGAGTKLTVLGQPKAAPSVTLFPPSSEELQANKATLVCLISDFYPGAVTVAWKADSSPVKAGVETTTPSKQSNNKYAASSYLSLTPEQWKSHRSYSCQVTHEGSTVEKTVAPTEC
notes: IgG1; also called anti-TIGIT IgG1 antibody BA148
As to B2, the EC50 in assay [3] was 0.00262 µg/mL.

B3: anti-TIGIT×CD96 multispecific molecule BA127 (bispecific antibody, human IgG1, kappa, lambda)
heavy 1: QVQLVQSGAEVKKPGASVKVSCKASGYTFTTYALHWVRQAPGQRLEWMGWINTGSGDTKYSQKFQGRVTITRDTSASTAYMELSSLRSEDTAVYYCARSLGVYYGMDVWGQGTLVTVSSASTKGPSVFPLAPSSKSTSGGTAALGCLVKDYFPEPVTVSWNSGALTSGVHTFPAVLQSSGLYSLSSVVTVPSSSLGTQTYICNVNHKPSNTKVDKRVEPKSCDKTHTCPPCPAPELLGGPDVFLFPPKPKDTLMISRTPEVTCVVVDVSHEDPEVKFNWYVDGVEVHNAKTKPREEQYNSTYRVVSVLTVLHQDWLNGKEYKCKVSNKALPAPIEKTISKAKGQPREPQVYTLPPSREEMTKNQVSLSCAVKGFYPSDIAVEWESNGQPENNYKTTPPVLDSDGSFFLVSKLTVDKSRWQQGNVFSCSVMHEALHNHYTQKSLSLSPG
light 1: not shown
heavy 2: EVQLVQSGAEVKKPGSSVKVSCKASGYTFASYGISWVRQAPGQGLEWMGGITPFFNRVDVAEKFQGRVTITADKSTSTAYIELSSLRSEDTAVYYCARDLRRGGVGDAFDIWGRGTLVTVSSASTKGPSVFPLAPSSKSTSGGTAALGCLVKDYFPEPVTVSWNSGALTSGVHTFPAVLQSSGLYSLSSVVTVPSSSLGTQTYICNVNHKPSNTKVDKRVEPKSCDKTHTCPPCPAPELLGGPDVFLFPPKPKDTLMISRTPEVTCVVVDVSHEDPEVKFNWYVDGVEVHNAKTKPREEQYNSTYRVVSVLTVLHQDWLNGKEYKCKVSNKALPLPEEKTISKAKGQPREPQVYTLPPSREEMTKNQVSLWCLVKGFYPSDIAVEWESNGQPENNYKTTPPVLDSDGSFFLYSKLTVDKSRWQQGNVFSCSVMHEALHNHYTQKSLSLSPG
light 2: QSALTQPRSVSGSPGQSVTISCTGTSPDVGSHAYRSWYQQHPGKAPKLMIYEVSYRPSGVSNRFSGSKSGNTASLTISGLQAEDEADYYCSSYPPSSATVFGAGTKLTVLGQPKAAPSVTLFPPSSEELQANKATLVCLISDFYPGAVTVAWKADSSPVKAGVETTTPSKQSNNKYAASSYLSLTPEQWKSHRSYSCQVTHEGSTVEKTVAPTEC
notes: Anti-CD96 arm = BA139, anti-TIGIT arm = BA150; copies: 1 + 1 + 1 + 1
B3 yielded a dissociation constant (Kd) in assay [1] of 19.6 nM. In assay [4], the dissociation constant (Kd) came out at 0.584 nM, the koff came out at 0.000356 s⁻¹ and the kon came to 610000 M⁻¹ s⁻¹. The IC50 in assay [2] was determined as 1.99 µg/mL.

One may read the Kd as the constant that tells how readily two partners part at equilibrium. Usually IC50 stands for the point on the concentration scale where inhibition reaches its midpoint. High values mean a need for much substance, low ones inhibition by little substance. A word on the EC50: it is the concentration that produces a half-maximal response. A low value points to an effect from little substance. By koff is commonly meant the rate constant with which the complex falls apart. Lower therefore signals slow dissociation. For orientation: kon means the rate constant with which the complex forms. A higher kon goes with fast association.
